The values below come from PMC10303109 (Molecules, 2023).

The target of this assay is receptor-binding domain (RBD) of the wild-type SARS-CoV-2 spike protein (319-541 aa) (SARS-CoV-2, UniProt P0DTC2). As to the kind of experiment: cryo-EM structure. The note with it: both partners purified.

B1: Fab domain of the antibody REGN10987 (Fab, V domains shown)
VH: QVQLVESGGGVVQPGRSLRLSCAASGFTFSNYAMYWVRQAPGKGLEWVAVISYDGSNKYYADSVKGRFTISRDNSKNTLYLQMNSLRTEDTAVYYCASGSDYGDYLLVYWGQGTLVTVSS
VL: QSALTQPASVSGSPGQSITISCTGTSSDVGGYNYVSWYQQHPGKAPKLMIYDVSKRPSGVSNRFSGSKSGNTASLTISGLQSEDEADYYCNSLTSISTWVFGGGTKLTVL
As to B1, the binding result is “binds”.
